Test results: patent US20080023859A1, “Glycopeptides and Temperature-Responsive Micelles” (Toagosei Co., Ltd., priority 2003, published 2008)

Experiment: Measurement of micelle formation by dynamic light scattering (particle diameter)
Type: physicochemical
Settings: DLS in solution at various temperatures
Procedure: The micelle formation was observed by measuring the particle diameter of glycopeptides using dynamic light scattering (DLS; HK-6600 manufactured by Otsuka Electronics Co., Ltd.).
For the solution of Compound 1, the temperature was varied between a temperature range of 15° C. to 35° C. for 15 minutes, the temperature variation was repeated, and the particle diameters were measured at 15° C. and 35° C..

NH2-Val-Pro-Gly-Val-Gly-Val-Pro-Gly-Val-Gly-OH (H-VPGVGVPGVG-OH) [reference peptide molecule]
particle diameter of aggregate (in words): very large particle diameter
